Data on one molecule can be found in patent US20240158537A1.

This experiment addresses IL-7 receptor (IL-7R), heterodimer of IL-7R alpha (CD127) and common gamma chain (CD132), on primary human T cells (human) (UniProt P16871). In words: cell-based or functional assay.

Sequence of IL-7 receptor (IL-7R), heterodimer of IL-7R alpha (CD127) and common gamma chain (CD132), on primary human T cells (human) (P16871 21-459, chain 1 of 2): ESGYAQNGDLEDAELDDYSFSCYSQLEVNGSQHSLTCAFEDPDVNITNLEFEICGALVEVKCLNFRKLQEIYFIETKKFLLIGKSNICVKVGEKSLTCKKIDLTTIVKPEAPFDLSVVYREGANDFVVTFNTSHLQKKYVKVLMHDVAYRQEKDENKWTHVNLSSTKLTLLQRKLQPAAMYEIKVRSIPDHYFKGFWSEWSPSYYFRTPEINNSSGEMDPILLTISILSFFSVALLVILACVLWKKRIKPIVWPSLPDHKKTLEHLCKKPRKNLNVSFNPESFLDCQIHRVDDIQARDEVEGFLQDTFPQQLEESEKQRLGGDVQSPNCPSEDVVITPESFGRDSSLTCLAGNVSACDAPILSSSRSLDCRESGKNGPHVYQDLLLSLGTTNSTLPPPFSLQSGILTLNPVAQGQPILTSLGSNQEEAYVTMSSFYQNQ
Sequence of IL-7 receptor (IL-7R), heterodimer of IL-7R alpha (CD127) and common gamma chain (CD132), on primary human T cells (human) (P31785 23-369, chain 2 of 2, further chain): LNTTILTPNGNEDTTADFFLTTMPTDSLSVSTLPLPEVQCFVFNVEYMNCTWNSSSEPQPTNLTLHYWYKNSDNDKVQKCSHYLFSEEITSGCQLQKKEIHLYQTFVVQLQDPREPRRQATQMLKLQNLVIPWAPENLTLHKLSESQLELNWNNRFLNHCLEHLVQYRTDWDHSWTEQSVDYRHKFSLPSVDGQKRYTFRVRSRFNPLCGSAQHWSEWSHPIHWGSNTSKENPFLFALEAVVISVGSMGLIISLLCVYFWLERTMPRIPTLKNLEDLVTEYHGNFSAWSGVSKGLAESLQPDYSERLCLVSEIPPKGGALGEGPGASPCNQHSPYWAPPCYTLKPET

B1: WT IL-7 His (SEQ ID NO: 2), native IL-7 with His-tag (ligand)
chain: DCDIEGKDGKQYESVLMVSIDQLLDSMKEIGSNCLNNEFNFFKRHICDANKEGMFLFRAARKLRQFLKMNSTGDFDLHLLKVSEGTTILLNCTGQVKGRKPAALGEAQPTKSLEENKSLKEQKKLNDLCFLKRLLQEIKTCWNKILMGTKEHVDHHHHHH
With B1, the Avg EC50 (nM) (human pSTAT5), CD4 Memory is 0.001 nM; the Avg EC50 (nM) (human pSTAT5), CD4 Naive was found to be 0.001 nM; the Avg EC50 (nM) (human pSTAT5), CD4 Treg was 0.033 nM; the Avg EC50 (nM) (human pSTAT5), CD8 Memory is 0.006 nM. The same molecule gave an Avg EC50 (nM) (human pSTAT5), CD8 Naive of 0.002 nM.
